Results: paper PMC6599006, “Rational design using sequence information only produces a peptide that binds to the intrinsically disordered region of p53” (Scientific Reports, 2019)

Key:
Experiment in all cases: fluorescence anisotropy
Conditions in all cases: 2 mM Mg2+, 20 mM HEPES pH 7.9, 100 mM KCl, 2 mM MgCl2, 0.5 mM EDTA, 1 mM DTT, 0.2 mg/mL BSA, 5 nM 6-FAM-DNA, 25 C
TetCT mutant (human) = tested on: TetCT mutant (human)
[1] = tested on: FL-p53 (thermostable, cysteine-modified mutant) (human)
CoreTet mutant (human) = tested on: CoreTet mutant (human)

Row | Substance | Kd (TetCT mutant (human); 75 uM DP6) | Kd (TetCT mutant (human); no DP6) | Kd ([1]; 75 uM DP6) | Kd ([1]; 150 uM DP6) | Kd ([1]; 300 uM DP5) | Kd ([1]; 300 uM DP6) | Kd ([1]; 450 uM DP6) | Kd ([1]; 600 uM DP5) | Kd ([1]; 600 uM DP6) | Kd ([1]; no DP5 (DP5 series)) | Kd ([1]; no DP6) | Kd (CoreTet mutant (human); 600 uM DP6) | Kd (CoreTet mutant (human); no DP6)
1 | nspDNA (random sequence) | 340 nM | 110 nM | 32 nM | 57 nM | 55 nM | 90 nM | 130 nM | 61 nM | 160 nM | 49 nM | 24 nM |  | 
2 | spDNA (p21) |  |  | 9.2 nM | 12 nM | 8.5 nM | 20 nM | 22 nM | 5.3 nM | 21 nM | 6.6 nM | 7.2 nM | 13 nM | 19 nM
